# B1: pegloticase (protein)
# chain: TYKKNDEVEFVRTGYGKDMIKVLHIQRDGKYHSIKEVATTVQLTLSSKKDYLHGDNSDVIPTDTIKNTVNVLAKFKGIKSIETFAVTICEHFLSSFKHVIRAQVYVEEVPWKRFEKNGVKHVHAFIYTPTGTHFCEVEQIRNGPPVIHSGIKDLKVLKTTQSGFEGFIKDQFTTLPEVKDRCFATQVYCKWRYHQGRDVDFEATWDTVRSIVLQKFAGPYDKGEYSPSVQKTLYDIQVLTLGQVPEIEDMEISLPNIHYLNIDMSKMGLINKEEVLLPLDNPYGKITGTVKRKLSSRL
# modifications: monomethoxy PEG conjugated; Krystexxa Sequence
# notes: covalent conjugate of uricase produced by a genetically modified strain of Escherichia coli and monomethoxypoly (ethylene glycol)
# Test system: serum uric acid (sUA)
# Assay: Serum uric acid (sUA) levels and sUA responders, open-label study of pegloticase with MTX (NCT03635957)
# Type: in vivo, human
# Protocol: The primary objective is to estimate the response rate during Month 6 (Weeks 20, 22, and 24), as measured by the sustained normalization of serum uric acid (SUA) to <6 mg/dL for at least 80% of the time during Month 6 in subjects receiving KXX with MTX.
# The primary efficacy outcome endpoint is the sustained normalization of SUA to <6 mg/dL for at least 80% of the time during month 6 (weeks 20, 22, and 24) in subjects receiving KXX with MTX. This is slightly below the urate solubility threshold and this threshold has been the accepted standard for nearly all modern gout trials. Participants who achieve this endpoint were classified as “responders.” Serum uric acid (SUA) responders may also be defined as participants achieving and maintaining SUA <6 mg/dL for at least 80% of the time during Month 6 (Weeks 20, 22, and 24).
# Blood samples may be collected prior to each pegloticase infusion for measurement of SUA levels using the Beckman Coulter AU System Uric Acid procedure. Participants were declared “non-responders” if there were SUA measures >6 mg/dL at 2 consecutive study visits beginning with the week 2 visit. […] If the SUA goal is not maintained before or at the 12-week mark, it was assumed that the participant had developed clinically relevant anti-pegloticase antibody and they received no further infusions. This assumption and subsequent discontinuation of pegloticase was consistent with the protocol of large phase III randomized controlled trials and the product label. A formal stopping rule was 2 occasions of SUA levels of greater than 6 mg/dL.
# Clinical Chemistry—Blood samples were collected prior to each pegloticase infusion for measurement of SUA levels (primary efficacy parameter) using the Beckman Coulter AU System Uric Acid procedure. In this procedure uric acid is converted to hydrogen peroxide. Hydrogen peroxide reacts with reagent to produce a chromophore which is read bichromatically at 660/800 nm. The amount of dye formed is proportional to the uric acid concentration in the sample.
# Serum samples for measurement of SUA levels were collected at the Screening Visit, the Week −4 Visit (prior to the first dose of MTX), and the Week −2 Visit during the MTX Run-in Period; within 48 hours prior to each pegloticase infusion and after the end of each pegloticase infusion prior to discharge from the site during the Pegloticase+IMM Period; at the non-infusion Week 52/End of Study/Early Termination Visits and at the Post Treatment 3 and 6 Month Follow-up Visits. Additional serum samples for SUA levels were collected at optional non-infusion (Frequent Sampling) Visits at Weeks 1 and 7. […] Subjects with SUA level >6 mg/dL at 2 consecutive visits beginning at Week 2 visit discontinued treatment, completed the End of Pegloticase Infusion Visit procedures within 2 weeks and continued the subject visits according to the protocol (without treatment).
# Efficacy analyses were performed using the modified intention-to-treat (mITT) population, defined as all enrolled subjects who received ≥1 dose of pegloticase. The proportion of Month 6 responders was summarized, along with a 95% confidence interval for the proportion. The proportion of Month 3 and overall (Months 3 and 6 combined) responders was analyzed similarly.
# A subject was declared a non-responder if the subject had SUA level >6 mg/dL at 2 consecutive study visits beginning with the Week 2 Visit. In addition, a subject who withdraws from study treatment for any reason after the first dose of pegloticase in the KXX+MTX Period and prior to Month 6 (for the primary endpoint) or Month 3 (for the secondary endpoint) was considered a non-responder if SUA values were not collected at the planned time points.
# Patients were administered oral MTX (15 mg/week) and folate (1 mg/day) 4 weeks prior to the first pegloticase infusion (Day 1) and throughout the pegloticase treatment period. […]
# [1] = Week 18 - Pre-Infusion, Month 6 sUA Responders
# [2] = Week 18 - Pre-Infusion, mITT, n=11
# [3] = Week 20 - Post-Infusion, Month 6 sUA Responders
# [4] = Week 20 - Post-Infusion, mITT, n=11
# [5] = Week 20 - Pre-Infusion, Month 6 sUA Responders
# [6] = Week 20 - Pre-Infusion, mITT, n=11
# [7] = Week 22 - Post-Infusion, Month 6 sUA Responders
# [8] = Week 22 - Post-Infusion, mITT, n=11
# [9] = Week 22 - Pre-Infusion, Month 6 sUA Responders
# [10] = Week 22 - Pre-Infusion, mITT, n=11
# [11] = Week 24 - Post-Infusion, Month 6 sUA Responders
# [12] = Week 24 - Post-Infusion, mITT, n=5
# [13] = Week 24 - Pre-Infusion, Month 6 sUA Responders
molecule,measurement,setting,value
B1,"sUA Change from Baseline, Mean",[1],-8.97 mg/dL
same,"sUA Change from Baseline, Median",[1],-8.80 mg/dL
same,"sUA Observed, Mean",[1],0.30 mg/dL
same,"sUA Observed, Median",[1],0.30 mg/dL
same,"sUA < 6 mg/dL, n (%)",[2],11 (100%)
same,"sUA Change from Baseline, Mean (SD)",[2],−8.97 (2.810) mg/dL
same,"sUA Change from Baseline, Median",[2],-8.80 mg/dL
same,"sUA Observed, Mean (SD)",[2],0.30 (0.000) mg/dL
same,"sUA Observed, Median",[2],0.30 mg/dL
same,"sUA < 6 mg/dL, %",[3],(100%)
same,"sUA Change from Baseline, Mean",[3],-8.97 mg/dL
same,"sUA Change from Baseline, Median",[3],-8.80 mg/dL
same,"sUA Observed, Mean",[3],0.30 mg/dL
same,"sUA Observed, Median",[3],0.30 mg/dL
same,"sUA < 6 mg/dL, n (%)",[4],11 (100%)
same,"sUA Change from Baseline, Mean (SD)",[4],−8.97 (2.810) mg/dL
same,"sUA Change from Baseline, Median",[4],-8.80 mg/dL
same,"sUA Observed, Mean (SD)",[4],0.30 (0.000) mg/dL
same,"sUA Observed, Median",[4],0.30 mg/dL
same,"sUA < 6 mg/dL, %",[5],(100%)
same,"sUA Change from Baseline, Mean",[5],-8.97 mg/dL
same,"sUA Change from Baseline, Median",[5],-8.80 mg/dL
same,"sUA Observed, Mean",[5],0.30 mg/dL
same,"sUA Observed, Median",[5],0.30 mg/dL
same,"sUA < 6 mg/dL, n (%)",[6],11 (100%)
same,"sUA Change from Baseline, Mean (SD)",[6],−8.97 (2.810) mg/dL
same,"sUA Change from Baseline, Median",[6],-8.80 mg/dL
same,"sUA Observed, Mean (SD)",[6],0.30 (0.000) mg/dL
same,"sUA Observed, Median",[6],0.30 mg/dL
same,"sUA < 6 mg/dL, %",[7],(100%)
same,"sUA Change from Baseline, Mean",[7],-8.97 mg/dL
same,"sUA Change from Baseline, Median",[7],-8.80 mg/dL
same,"sUA Observed, Mean",[7],0.30 mg/dL
same,"sUA Observed, Median",[7],0.30 mg/dL
same,"sUA < 6 mg/dL, n (%)",[8],11 (100%)
same,"sUA Change from Baseline, Mean (SD)",[8],−8.97 (2.810) mg/dL
same,"sUA Change from Baseline, Median",[8],-8.80 mg/dL
same,"sUA Observed, Mean (SD)",[8],0.30 (0.000) mg/dL
same,"sUA Observed, Median",[8],0.30 mg/dL
same,"sUA < 6 mg/dL, %",[9],(100%)
same,"sUA Change from Baseline, Mean",[9],-8.97 mg/dL
same,"sUA Change from Baseline, Median",[9],-8.80 mg/dL
same,"sUA Observed, Mean",[9],0.30 mg/dL
same,"sUA Observed, Median",[9],0.30 mg/dL
same,"sUA < 6 mg/dL, n (%)",[10],11 (100%)
same,"sUA Change from Baseline, Mean (SD)",[10],−8.97 (2.810) mg/dL
same,"sUA Change from Baseline, Median",[10],-8.80 mg/dL
same,"sUA Observed, Mean (SD)",[10],0.30 (0.000) mg/dL
same,"sUA Observed, Median",[10],0.30 mg/dL
same,"sUA < 6 mg/dL, %",[11],(100%)
same,"sUA Change from Baseline, Mean",[11],-9.18 mg/dL
same,"sUA Change from Baseline, Median",[11],-9.30 mg/dL
same,"sUA Observed, Mean",[11],0.30 mg/dL
same,"sUA Observed, Median",[11],0.30 mg/dL
same,"sUA < 6 mg/dL, n (%)",[12],5 (100%)
same,"sUA Change from Baseline, Mean (SD)",[12],−9.18 (4.135) mg/dL
same,"sUA Change from Baseline, Median",[12],-9.30 mg/dL
same,"sUA Observed, Mean (SD)",[12],0.30 (0.000) mg/dL
same,"sUA Observed, Median",[12],0.30 mg/dL
same,"sUA < 6 mg/dL, %",[13],(100%)
same,"sUA Change from Baseline, Mean",[13],-8.97 mg/dL
same,"sUA Change from Baseline, Median",[13],-8.80 mg/dL
same,"sUA Observed, Mean",[13],0.30 mg/dL
same,"sUA Observed, Median",[13],0.30 mg/dL
